Assays:
[1] = biological target: T1, SARS-CoV-2 RBD, wild type (Sino Biological) (SARS-CoV-2, UniProt P0DTC2 319-541); assay: BLI, affinity format: binder on AHC sensor, RBD in solution
T1 construct: domain: RBD

[2] = biological target: T2, SARS-CoV-2 RBD variant Alpha (N501Y) (Sino Biological) (SARS-CoV-2, UniProt P0DTC2 319-541); assay: as above
T2 construct: domain: RBD

[3] = biological target: T3, SARS-CoV-2 RBD variant Delta (L452R, T478K) (Sino Biological) (SARS-CoV-2, UniProt P0DTC2 319-541); assay: as above
T3 construct: domain: RBD

[4] = biological target: T4, SARS-CoV-2 RBD variant Kappa (L452R, E484Q) (Sino Biological) (SARS-CoV-2, UniProt P0DTC2 319-541); assay: as above
T4 construct: domain: RBD

[5] = biological target: T5, SARS-CoV-2 RBD variant Gamma (K417T, E484K, N501Y) (Sino Biological) (SARS-CoV-2, UniProt P0DTC2 319-541); assay: as above
T5 construct: domain: RBD

[6] = biological target: T6, SARS-CoV-2 RBD variant Beta (K417N, E484K, N501Y) (Sino Biological) (SARS-CoV-2, UniProt P0DTC2 319-541); assay: as above
T6 construct: domain: RBD

[7] = biological target: T7, SARS-CoV-2 RBD variant Lambda (L452Q, F490S) (Sino Biological) (SARS-CoV-2, UniProt P0DTC2 319-541); assay: as above
T7 construct: domain: RBD

[8] = biological target: T1, SARS-CoV-2 RBD, wild type (Sino …); assay: BLI, avidity format: response at highest analyte concentration
[9] = biological target: T2, SARS-CoV-2 RBD variant Alpha (N501Y) …; assay: as above
[10] = biological target: T3, SARS-CoV-2 RBD variant Delta (L452R, …); assay: as above
[11] = biological target: T4, SARS-CoV-2 RBD variant Kappa (L452R, …); assay: as above
[12] = biological target: T5, SARS-CoV-2 RBD variant Gamma (K417T, …); assay: as above
[13] = biological target: T6, SARS-CoV-2 RBD variant Beta (K417N, …); assay: as above
[14] = biological target: T7, SARS-CoV-2 RBD variant Lambda (L452Q, …); assay: as above
[15] = biological target: T1, SARS-CoV-2 RBD, wild type (Sino …); assay: BLI, affinity format: response at highest analyte concentration
[16] = biological target: T2, SARS-CoV-2 RBD variant Alpha (N501Y) …; assay: as above
[17] = biological target: T3, SARS-CoV-2 RBD variant Delta (L452R, …); assay: as above
[18] = biological target: T4, SARS-CoV-2 RBD variant Kappa (L452R, …); assay: as above
[19] = biological target: T5, SARS-CoV-2 RBD variant Gamma (K417T, …); assay: as above
[20] = biological target: T6, SARS-CoV-2 RBD variant Beta (K417N, …); assay: as above
[21] = biological target: T7, SARS-CoV-2 RBD variant Lambda (L452Q, …); assay: as above
[22] = biological target: T1, SARS-CoV-2 RBD, wild type (Sino …); assay: BLI, avidity format: biotinylated RBD on SA sensor, binder in solution
[23] = biological target: T2, SARS-CoV-2 RBD variant Alpha (N501Y) …; assay: as above
[24] = biological target: T3, SARS-CoV-2 RBD variant Delta (L452R, …); assay: as above
[25] = biological target: T4, SARS-CoV-2 RBD variant Kappa (L452R, …); assay: as above
[26] = biological target: T5, SARS-CoV-2 RBD variant Gamma (K417T, …); assay: as above
[27] = biological target: T6, SARS-CoV-2 RBD variant Beta (K417N, …); assay: as above
[28] = biological target: T7, SARS-CoV-2 RBD variant Lambda (L452Q, …); assay: as above

B1: Tixagevimab (antibody, V domains shown)
VH: QMQLVQSGPEVKKPGTSVKVSCKASGFTFMSSAVQWVRQARGQRLEWIGWIVIGSGNTNYAQKFQERVTITRDMSTSTAYMELSSLRSEDTAVYYCAAPYCSSISCNDGFDIWGQGTMVTVSS
VL: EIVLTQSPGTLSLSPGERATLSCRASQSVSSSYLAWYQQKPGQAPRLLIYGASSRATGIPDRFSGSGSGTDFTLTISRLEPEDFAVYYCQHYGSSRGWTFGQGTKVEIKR
- Kd [1]: 3.63 nM
- koff [1]: 0.00406 s⁻¹
- kon [1]: 1.12e+06 M⁻¹ s⁻¹
- Kd [2]: 3.17 nM
- koff [2]: 0.0026 s⁻¹
- kon [2]: 821000 M⁻¹ s⁻¹
- Kd [3]: 3.83 nM
- koff [3]: 0.0043 s⁻¹
- kon [3]: 1.12e+06 M⁻¹ s⁻¹
- Kd [4]: 5.21 nM
- koff [4]: 0.00469 s⁻¹
- kon [4]: 900000 M⁻¹ s⁻¹
- Kd [5]: 5.83 nM
- koff [5]: 0.00484 s⁻¹
- kon [5]: 830000 M⁻¹ s⁻¹
- Kd [6]: 3.24 nM
- koff [6]: 0.00318 s⁻¹
- kon [6]: 981000 M⁻¹ s⁻¹
- Kd [7]: 4.31 nM
- koff [7]: 0.00337 s⁻¹
- kon [7]: 782000 M⁻¹ s⁻¹
- Response [8]: 1.7 nm shift
- Response [9]: 1.35 nm shift
- Response [10]: 1.3 nm shift
- Response [11]: 1.54 nm shift
- Response [12]: 1.58 nm shift
- Response [13]: 1.14 nm shift
- Response [14]: 1.76 nm shift
- Response [15]: 0.477 nm shift
- Response [16]: 0.552 nm shift
- Response [17]: 0.513 nm shift
- Response [18]: 0.472 nm shift
- Response [19]: 0.474 nm shift
- Response [20]: 0.46 nm shift
- Response [21]: 0.411 nm shift
- Kd [22]: 0.0221 nM
- koff [22]: 7.4e-06 s⁻¹
- kon [22]: 335000 M⁻¹ s⁻¹
- Kd [23]: < 0.001 nM
- koff [23]: < 1e-07 s⁻¹
- kon [23]: 447000 M⁻¹ s⁻¹
- Kd [24]: 0.0303 nM
- koff [24]: 1.28e-05 s⁻¹
- kon [24]: 422000 M⁻¹ s⁻¹
- Kd [25]: < 0.001 nM
- koff [25]: < 1e-07 s⁻¹
- kon [25]: 416000 M⁻¹ s⁻¹
- Kd [26]: < 0.001 nM
- koff [26]: < 1e-07 s⁻¹
- kon [26]: 376000 M⁻¹ s⁻¹
- Kd [27]: < 0.001 nM
- koff [27]: < 1e-07 s⁻¹
- kon [27]: 440000 M⁻¹ s⁻¹
- Kd [28]: < 0.001 nM
- koff [28]: < 1e-07 s⁻¹
- kon [28]: 362000 M⁻¹ s⁻¹
